The values that follow come from publication doi:10.1101/2021.11.08.467404.

Assay [1] addresses microtubules polymerised from porcine brain tubulin (porcine) (UniProt P02550). The assay can be described thus: FRAP of fluorescent protein on immobilised microtubules.
For assay [2] the target is unchanged. Description: single-molecule TIRF microscopy on immobilised microtubules.
The target is the same in assay [3]. Description: TIRF microscopy of fluorescent protein on immobilised microtubules.

Sequence of UniProt P02550 (P02550 whole entry): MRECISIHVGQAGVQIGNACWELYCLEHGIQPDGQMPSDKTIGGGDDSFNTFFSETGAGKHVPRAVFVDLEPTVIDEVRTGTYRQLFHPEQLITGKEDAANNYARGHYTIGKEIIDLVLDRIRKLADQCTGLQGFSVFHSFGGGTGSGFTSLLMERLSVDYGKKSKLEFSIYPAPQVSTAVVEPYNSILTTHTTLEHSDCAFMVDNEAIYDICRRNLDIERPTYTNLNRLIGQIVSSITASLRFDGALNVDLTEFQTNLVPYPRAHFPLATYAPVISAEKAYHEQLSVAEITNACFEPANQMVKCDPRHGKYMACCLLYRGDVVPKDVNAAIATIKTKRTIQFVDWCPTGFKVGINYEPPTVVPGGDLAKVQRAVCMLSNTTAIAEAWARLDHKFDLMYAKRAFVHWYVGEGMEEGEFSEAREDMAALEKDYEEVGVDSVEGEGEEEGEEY

As to GFP-MAP2c (natural protein), the fold turnover (FRAP) outside against inside envelopes in assay [1] was 4 fold.
TMR-MAP2c (natural protein) gave a fold increase of dwell time inside GFP-MAP2c envelopes against outside in assay [2] of 3 fold.
As for “TMR-MAP4 (full-length human MAP4, isoform 1) (from UniProt P27816 1-1152) (natural protein)”, the fold dwell time of single molecules against MAP2c in assay [2] is 2 fold.
In assay [3], “kinesin-1-GFP (from UniProt P33176 1-963) (natural protein)” registered a landing rate (with 600 nM tau-mCherry) of 0.23 μm^-1s^-1.
